Measured values reported in patent publication US20250361322A1 (ICONIC THERAPEUTICS, published 2025).
Where two headings read alike, the source gives them in different places.

What was measured:
[1] = target: T1, h108-219_r (human/rat chimera); assay: live cell staining, flow cytometry, transfected HEK293
T1 chain: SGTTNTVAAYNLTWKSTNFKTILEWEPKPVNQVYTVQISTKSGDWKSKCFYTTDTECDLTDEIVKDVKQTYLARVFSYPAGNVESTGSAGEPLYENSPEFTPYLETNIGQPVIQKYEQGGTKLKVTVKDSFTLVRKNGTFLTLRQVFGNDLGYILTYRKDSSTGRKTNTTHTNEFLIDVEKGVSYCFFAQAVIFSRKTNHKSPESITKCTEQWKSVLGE
Protocol: (§1) To establish binding of the anti-human TF antibodies to the various TF constructs, HEK293 cells were transfected with a DNA plasmid that co-expresses the TF construct and a green fluorescent protein marker. […] Upon acquisition of 80,000 live events on a flow cytometer, live cells marked with the fluorescent marker were analyzed for the degree of staining by the anti-TF antibody.

[2] = target: T2, rTF (rat TF) (rat, UniProt P42533 29-252); assay: as above
Protocol: as §1

[3] = target: r141-194_h (rat/human chimera, UniProt P42533 29-252); assay: as above
Protocol: as §1

[4] = target: T3, hTF (human Tissue Factor construct) (human, UniProt P13726 33-251); assay: as above
T3 construct: also called human TF
Protocol: as §1

[5] = target: T4, hTF_N171H_T197K (human, UniProt P13726 33-251); assay: as above
T4 chain: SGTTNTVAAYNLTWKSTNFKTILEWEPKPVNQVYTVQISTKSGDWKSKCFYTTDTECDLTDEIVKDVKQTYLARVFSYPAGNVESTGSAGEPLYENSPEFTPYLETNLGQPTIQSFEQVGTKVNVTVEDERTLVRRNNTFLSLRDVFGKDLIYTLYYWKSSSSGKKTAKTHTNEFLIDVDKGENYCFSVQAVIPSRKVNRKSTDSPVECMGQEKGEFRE
Protocol: as §1

[6] = target: T5, h1-77_r (human/rat chimera); assay: as above
T5 construct: Human TF ECD with residues 1-77 replaced by rat segment
Protocol: as §1

[7] = target: T2, rTF (rat TF); assay: as above; remark: listed apart in the source
Protocol: as §1

[8] = target: h159-219_r (human/rat chimera); assay: as above
Protocol: as §1

[9] = target: T6, h1-107_r (human/rat chimera); assay: as above
T6 chain: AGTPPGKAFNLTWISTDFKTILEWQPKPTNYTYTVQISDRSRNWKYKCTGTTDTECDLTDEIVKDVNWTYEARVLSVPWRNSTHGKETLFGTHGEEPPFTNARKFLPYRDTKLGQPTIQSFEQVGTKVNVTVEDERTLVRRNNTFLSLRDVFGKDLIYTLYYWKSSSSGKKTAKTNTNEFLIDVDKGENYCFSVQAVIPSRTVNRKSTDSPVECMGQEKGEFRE
Protocol: as §1

[10] = target: T7, Macaca mulatta TF on RF/6A cells (Macaca mulatta (protein sequence stated …, UniProt P13726 33-294 (human entry))); assay: flow cytometry, IgG1 titrated on TF-positive Macaca mulatta RF/6A cells, 4-parameter fit
T7 construct: Endogenous TF of the RF/6A cell line; also called TF-positive Macaca mulatta RF/6A cells; cynomolgus TF
T7 chain: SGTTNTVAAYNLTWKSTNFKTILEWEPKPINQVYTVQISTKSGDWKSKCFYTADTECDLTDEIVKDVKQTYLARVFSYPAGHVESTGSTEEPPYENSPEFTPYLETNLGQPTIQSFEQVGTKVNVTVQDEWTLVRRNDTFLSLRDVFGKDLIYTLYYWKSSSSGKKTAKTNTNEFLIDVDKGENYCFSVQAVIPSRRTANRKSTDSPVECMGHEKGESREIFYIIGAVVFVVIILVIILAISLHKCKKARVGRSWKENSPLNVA
Protocol: (§2) After 2 washes, dead cells were labeled with TO-PRO-3 Iodide (ThermoFisher Scientific) and samples were analyzed on a CytoFLEX flow cytometer (Beckman Coulter, Brea, CA, USA) or Novocyte flow cytometer (ACEA Biosciences, San Diego, CA, USA). The median fluorescence intensities (MFIs) at each dilution were plotted and cell EC₅₀'s were derived using a 4-parameter binding model in Prism (GraphPad, La Jolla, CA, USA).

[11] = target: T8, E. coli-derived TF (human (Example 17 does not restate the …, UniProt P13726 33-251)); assay: protein ELISA, plate coated with E. coli-derived TF-His, antibody titrated, HRP secondary, luminescence
T8 construct: also called E. coli-derived TF-His; E. coli-derived TF protein
Protocol: (§3) Plates coated with Expi293- or E. coli-derived TF-His were incubated with increasing concentrations of antibodies.

[12] = target: T9, Expi293-derived TF-His (human (Example 17 does not restate the …, UniProt P13726 33-251)); assay: protein ELISA, plate coated with Expi293-derived TF-His, antibody titrated, HRP secondary, luminescence; Expi293-derived TF, not E. coli-derived
T9 construct: Glycosylated TF ECD-His6 from Expi293 cells; also called Expi293-derived TF protein; TF ECD-His6
Protocol: as §3

[13] = target: T10, full-length mouse TF with a C-terminal FLAG tag on Flp-In-CHO cells (mouse, UniProt P20352 29-294); assay: flow cytometry on CHO cells expressing mouse TF, MFI at 250 nM antibody
T10 construct: also called CHO-mTF; mouse TF-positive CHO cells
Protocol: as §2

[14] = target: T11, human Tissue Factor on human TF-positive cells (human, UniProt P13726 33-295); assay: competition flow cytometry on MDA-MB-231 cells: unlabeled antibody titration first, then 20 nM 25A3-Alexa488 as the competitor
T11 construct: also called hTF; CD142

[15] = target: T12, hTF_N171H_T197K construct on HEK293 cells (human, UniProt P13726 33-251); assay: live cell staining, HEK293 cells
T12 construct: The entry already carries N171H and T197K; not shown: transmembrane/cytoplasmic anchor of the cell-surface construct
T12 chain: T4 chain

[16] = target: T11, human Tissue Factor on human …; assay: competition flow cytometry on MDA-MB-231 cells: unlabeled antibody titration first, then 20 nM 43D7-Alexa488 as the competitor
Protocol: After another 1 hr incubation on ice, cells were washed, stained with a viability dye, and analyzed by flow cytometry. The Alexa488 fluorescence data from viable cells was summarized using median fluorescence intensity.

[17] = target: T13, human TF ECD-His6 (human, UniProt P13726 33-251); assay: BLI (ForteBio Octet)
T13 construct: Expi293-derived; Biacore used TF-His; also called TF-His; hTF
Protocol: (§4) Kinetic measurements for the anti-TF antibodies were conducted on an Octet QK384 (Pall ForteBio, Fremont, CA, USA) or a Biacore (GE Healthcare Bio-Sciences).
(§5) Briefly, ForteBio affinity measurements were performed by loading IgGs on-line onto AHC sensors. Sensors were equilibrated off-line in assay buffer for 30 min and then monitored on-line for 60 seconds for baseline establishment. Sensors with loaded IgGs were exposed to 100 nM antigen (human, cynomolgus, or mouse TF) for 3 min, afterwards they were transferred to assay buffer for 3 min for off-rate measurement. Alternatively, binding measurements were obtained by loading biotinylated TF monomer on SA sensors followed by exposure to 100 nM antibody Fab in solution. Kinetic data was analyzed and fitted using a 1:1 Langmuir binding model and the KD was calculated by dividing the koff by the kₒₙ.

[18] = target: T14, cynomolgus monkey TF ECD-His6 (cynomolgus monkey (Macaca fascicularis)); assay: BLI (ForteBio Octet)
T14 construct: Expi293-derived; also called TF-His; cTF
T14 chain: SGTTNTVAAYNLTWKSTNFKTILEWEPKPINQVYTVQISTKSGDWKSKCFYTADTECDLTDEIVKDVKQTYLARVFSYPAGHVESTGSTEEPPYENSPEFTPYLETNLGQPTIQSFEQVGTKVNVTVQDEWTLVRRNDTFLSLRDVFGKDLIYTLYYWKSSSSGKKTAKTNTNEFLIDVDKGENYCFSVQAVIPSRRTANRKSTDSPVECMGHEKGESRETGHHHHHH
Protocol: as §4, §5

[19] = target: T15, mouse TF ECD-His6 (mouse, UniProt P20352 29-251); assay: BLI (ForteBio Octet)
T15 construct: Expi293-derived; also called TF-His; mTF
Protocol: as §4, §5

[20] = target: T16, rTF (rat TF) construct on HEK293 cells (rat, UniProt P42533 29-252); assay: flow cytometry (live cell staining), antibody titration 1:3 from 250 nM on HEK293 cells transfected with rTF
T16 construct: not shown: transmembrane/cytoplasmic anchor of the cell-surface construct

[21] = target: T11, human Tissue Factor on human …; assay: flow cytometry, antibody titration on MDA-MB-231 cells (human TF), 4-parameter fit of MFI
Protocol: as §2

[22] = target: T11, human Tissue Factor on human …; assay: flow cytometry, antibody titration on HCT-116 cells (endogenous human TF), 4-parameter fit of MFI
Protocol: as §2

[23] = target: T11, human Tissue Factor on human …; assay: flow cytometry, titration of unconjugated antibody on HCT-116 cells (human TF), 4-parameter fit of MFI
[24] = target: T11, human Tissue Factor on human …; assay: competition flow cytometry on MDA-MB-231 cells: unlabeled antibody titration first, then 20 nM 25A3-Alexa488 as the competitor; remark: listed apart in the source
[25] = target: T13, human TF ECD-His6; assay: SPR (Biacore), TF-His over coupled antibody
[26] = target: T14, cynomolgus monkey TF ECD-His6; assay: SPR (Biacore), TF-His over coupled antibody
[27] = target: T11, human Tissue Factor on human …; assay: flow cytometry, antibody titration on A431 cells (human TF), 4-parameter fit of MFI
Protocol: as §2

[28] = target: T17, r141-194_h chimeric rat-human TF construct on HEK293 cells (rat with human segment, UniProt P42533 29-252); assay: flow cytometry (live cell staining), antibody titration 1:3 from 250 nM on HEK293 cells transfected with r141-194_h
T17 construct: not shown: transmembrane/cytoplasmic anchor of the cell-surface construct

B1: 5G9 (humanized TF8-5G9, CNTO 860) (antibody, V domains shown)
VH: QVQLVESGGGVVQPGRSLRLSCKASGFNIKDYYMHWVRQAPGKGLEWIGLIDPENGNTIYDPKFQGRFTISADNSKNTLFLQMDSLRPEDTAVYYCARDNSYYFDYWGQGTPVTVSS
VL: DIQMTQSPSSLSASVGDRVTITCKASQDIRKYLNWYQQKPGKAPKLLIYYATSLADGVPSRFSGSGSGTDYTFTISSLQPEDIATYYCLQHGESPYTFGQGTKLEIT
notes: Previously described anti-TF antibody; detected with anti-human IgG-Fc; also called h5G9
percent antibody binding to TF construct relative to hTF [1]: 0%

B2: 39A (antibody, V domains shown)
VH: QVQLVQSGAEVKKPGSSVKVSCKASGGTFSSNAIGWVRQAPGQGLEWMGSIIPIIGFANYAQKFQGRVTITADESTSTAYMELSSLRSEDTAVYYCARDSGYYYGASSFGMDVWGQGTTVTVSS
VL: EIVMTQSPATLSVSPGERATLSCRASQSVSSNLAWYQQKPGQAPRLLIYGASTRATGIPARFSGSGSGTEFTLTISSLQSEDFAVYYCEQYNNLPLTFGGGTKVEIK
notes: Human IgG (detected with anti-human IgG-Fc)
percent antibody binding to TF construct relative to hTF [2]: 0%
percent antibody binding to TF construct relative to hTF [3]: 0%
percent antibody binding to TF construct relative to hTF [4]: 100%
percent antibody binding to TF construct relative to hTF [5]: 94%
percent antibody binding to TF construct relative to hTF [6]: 0%
percent antibody binding to TF construct relative to hTF [7]: 0%
percent antibody binding to TF construct relative to hTF [8]: 141%
percent antibody binding to TF construct relative to hTF [9]: 0%

B3: 1F (antibody, human IgG1, V domains shown)
VH: EVQLLESGGGLVQPGGSLRLSCAASGFTFSDYAMGWVRQAPGKGLEWVSTISGSGGLTYYADSVKGRFTISRDNSKNTLYLQMNSLRAEDTAVYYCAKAPYGYYMDVWGKGTTVTVSS
VL: not shown
notes: Human IgG1; also called antibody designated 1F
EC50 [10]: 0.17 nM
EC50 [11]: 0.32 nM
EC50 [12]: 0.41 nM

B4: 25A3 (antibody, human IgG1, V domains shown)
VH: QVQLVQSGAEVKKPGASVKVSCKASGYTFDVYGISWVRQAPGQGLEWMGWIAPYSGNTNYAQKLQGRVTMTTDTSTSTAYMELRSLRSDDTAVYYCARDAGTYSPFGYGMDVWGQGTTVTVSS
VL: DIQMTQSPSTLSASVGDRVTITCQASQSINNWLAWYQQKPGKAPKLLIYKAYNLESGVPSRFSGSGSGTEFTLTISSLQPDDFATYYCQLFQSLPPFTFGGGTKVEIK
notes: Human IgG1; also called antibody designated 25A3
MFI at 250 nM [13]: 5.8e+06
IC50 [14]: 1.13 nM
binding result [15]: no binding (tested: 15 ug/ml (100 nM); below 50% of hTF)
IC50 [16]: 0.84 nM
Kd [17]: 1.67 nM
Kd [18]: 1.36 nM
Kd [19]: 131 nM
binding result [20]: no binding (tested: 250 nM)
EC50 [21]: 0.17 nM
EC50 [22]: 0.077 nM
EC50 [23]: 0.16 nM
IC50 [24]: 1.03 nM
Kd [25]: 0.36 nM
Kd [26]: 0.21 nM
EC50 [27]: 0.5 nM

B5: 10H10 (M1593) (antibody, V domains shown)
VH: EVQLVQSGAEVKKPGESLRISCKGSGYTFAPYWIEWVRQMPGKGLEWMGDILPGTGFTTYSPSFQGHVTISADKSISTAYLQWSSLKASDTAMYYCARSGYYGNSGFAYWGQGTLVTVSS
VL: DIVMTQTPLSLPVTPGEPASISCKSSQSLLSSGNQKNYLTWYLQKPGQSPQLLIYWASTRESGVPDRFSGSGSGTDFTLKISRVEAEDVGVYYCQNDYTYPLTFGQGTKLEIK
notes: also called anti-TF M1593
binding result [28]: no binding (tested: 250 nM)
binding result [20]: no binding (tested: 250 nM)
